According to patent US20170066831A1 (Janssen / Centocor, published 2017):
Positions count from the first letter of the chain named.

Tests used:
[1] = target: T1, human ST2L, full length, on cells (human, UniProt Q01638 19-556); assay: cell-based or functional assay
T1 sequence: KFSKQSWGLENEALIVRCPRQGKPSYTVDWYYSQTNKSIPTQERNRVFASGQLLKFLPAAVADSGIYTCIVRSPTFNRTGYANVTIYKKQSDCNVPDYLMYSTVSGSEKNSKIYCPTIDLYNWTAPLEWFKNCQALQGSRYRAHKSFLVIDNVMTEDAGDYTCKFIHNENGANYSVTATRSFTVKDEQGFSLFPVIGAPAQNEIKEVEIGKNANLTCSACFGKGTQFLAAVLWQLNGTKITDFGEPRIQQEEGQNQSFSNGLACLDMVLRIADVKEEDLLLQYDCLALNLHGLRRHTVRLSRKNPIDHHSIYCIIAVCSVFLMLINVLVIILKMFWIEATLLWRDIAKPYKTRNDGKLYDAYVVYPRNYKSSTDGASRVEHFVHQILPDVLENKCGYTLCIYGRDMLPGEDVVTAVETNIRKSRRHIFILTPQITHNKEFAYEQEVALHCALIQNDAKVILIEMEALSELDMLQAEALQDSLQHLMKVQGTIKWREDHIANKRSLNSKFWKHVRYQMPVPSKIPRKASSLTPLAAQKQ

69GQL71-->RDR = target: T2, 69GQL71-->RDR; assay: SPR, ProteOn XPR36, 25 C; mAb captured on anti-Fc surface, ST2L-D1D2 (HH-ST2L) variant injected; 1:1 model
T2 construct: also called HH-ST2L (ST2L-D1D2) variant with 69GQL71 changed to RDR
T2 receptor fragment (Domains I and II): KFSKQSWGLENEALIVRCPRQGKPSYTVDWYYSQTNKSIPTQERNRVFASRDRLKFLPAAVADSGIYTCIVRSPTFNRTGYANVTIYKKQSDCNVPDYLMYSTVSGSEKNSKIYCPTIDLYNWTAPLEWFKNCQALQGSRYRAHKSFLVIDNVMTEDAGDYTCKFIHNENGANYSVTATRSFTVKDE
Procedure: (§1) Binding studies were performed using the ProteOn XPR36 Protein Interaction Array system (Bio-Rad) (Bravman T, et al. Anal Biochem 358:281-288, 2006). […] Individual anti-ST2L mAb was then captured by flowing (1 μg/mL) antibody solution prepared in PBS containing 0.5% Nonidet P-40 and 0.5% Na-deoxycholate). The signal in the surfaces reached ˜250 resonance units (RU, 1 RU=1 pg protein/mm²) in the anti-Fc-coated surfaces, confirming that these antibodies specifically capture anti-ST2L mAbs. After 90° rotation of the fluid system, wild type of ST2L-D1D2 or variant proteins (0.5 mg/mL in PBS containing 0.5% Nonidet P-40 and 0.5% Na-deoxycholate) was injected in the parallel flow channels. All of these assays were performed at 25° C. The ST2L-D1D2-dependent signals on the surfaces were obtained by double referencing, subtracting the response observed on surfaces immobilizing the antibodies alone, and the signal observed injecting the vehicle alone (which allows correction for binding-independent responses). The resulting sensorgrams were fitted by the simplest 1:1 interaction model (ProteOn analysis software), to obtain the corresponding association and dissociation rate constants (kₐ and kd).

A78R = target: T3, A78R; assay: as above
T3 construct: also called HH-ST2L (ST2L-D1D2) variant A78R
T3 receptor fragment (Domains I and II): T2 receptor fragment (Domains I and II) with R51G, D52Q, R53L, A60R
Procedure: as §1

A80E = target: T4, A80E; assay: as above
T4 construct: also called HH-ST2L (ST2L-D1D2) variant A80E
T4 receptor fragment (Domains I and II): T2 receptor fragment (Domains I and II) with R51G, D52Q, R53L, A62E
Procedure: as §1

108QSD110-->PPS = target: T5, 108QSD110-->PPS; assay: as above
T5 receptor fragment (Domains I and II): T2 receptor fragment (Domains I and II) with R51G, D52Q, R53L, Q90P, S91P, D92S
Procedure: as §1

[2] = target: T6, HH-ST2L variant 93NL94 (substitution 93TF94 to 93NL94) (human, UniProt Q01638 19-205); assay: as above
T6 chain: T2 receptor fragment (Domains I and II) with R51G, D52Q, R53L, T75N, F76L
Procedure: as §1

B1: STLM208 (antibody, V domains shown)
VH: EVQLLESGGGLVQPGGSLRLSCAASGFTFSIYDMIWVRQAPGKGLEWVSSIRGEGGGTYYADSVKGRFTISRDNSKNTLYLQMNSLRAEDTAVYYCARDPWSTEGSFFVLDYWGQGTLVTVSS
VL: EIVLTQSPATLSLSPGERATLSCRASQSVDDDLAWYQQKPGQAPRLLIYDASNRATGIPARFSGSGSGTDFTLTISSLEPEDFAVYYCQQYITAPLTFGQGTKVEIK
notes: frameworks VH3-23 / Vk-L6
RGA IC50 [1]: 0.61 µg/mL | Kd (69GQL71-->RDR): 9.6 pM | koff (69GQL71-->RDR): 9.27e-05 s⁻¹ | kon (69GQL71-->RDR): 1.02e+07 M⁻¹ s⁻¹ | Kd (A78R): 10.4 pM | koff (A78R): 0.00013 s⁻¹ | kon (A78R): 1.24e+07 M⁻¹ s⁻¹ | Kd (A80E): 11 pM | koff (A80E): 0.000127 s⁻¹ | kon (A80E): 1.15e+07 M⁻¹ s⁻¹ | Kd (108QSD110-->PPS): 10 pM | koff (108QSD110-->PPS): 0.000119 s⁻¹ | kon (108QSD110-->PPS): 1.28e+07 M⁻¹ s⁻¹ | koff [2]: 0.000625 s⁻¹ | kon [2]: 1.27e+07 M⁻¹ s⁻¹
